Measurements as given in patent US20180318386A1, “PEPTIDES AND METHODS OF TREATING ENDOMETRIOSIS USING THE SAME” (BIOINCEPT, LLC, priority 2014, published 2018).

What was measured:
Experiment in all cases: PIF affinity resin pull-down, CD14+ cell lysate, LC-MS/MS count
[1] = target: Actinin alpha 1 isoform 3 (human) (UniProt P12814)
[2] = target: Centrosomal protein of 120 kDa (Fragment) (human) (UniProt Q8N960)
Plastin-2 (human) = Plastin-2 (human) (UniProt P13796)
[3] = target: Isoform Short of 14-3-3 protein beta/alpha (human) (UniProt P31946)
[4] = target: 14-3-3 protein zeta/delta (human) (UniProt P63104)
Gelsolin (human) = Gelsolin (human) (UniProt P06396)
Hornerin (human) = Hornerin (human) (UniProt Q86YZ3)
[5] = target: Protein disulfide-isomerase A4 (human) (UniProt P13667)
[6] = target: Lymphocyte-specific protein 1 (human) (UniProt P33241)
[7] = target: Histone-binding protein RBBP7 (human) (UniProt Q16576)
[8] = target: Isoform 2 of Heat shock protein HSP 90-alpha (human) (UniProt P07900)
[9] = target: Isoform 2 of Ras suppressor protein 1 (human) (UniProt Q15404)
[10] = target: Tropomyosin alpha-3 chain (human) (UniProt P06753)
Calmodulin (human) = Calmodulin (human) (UniProt P0DP23)
[11] = target: Isoform H14 of Myeloperoxidase (human) (UniProt P05164)
Coronin-1A (human) = Coronin-1A (human) (UniProt P31146)
Calreticulin (human) = Calreticulin (human) (UniProt P27797)
Filamin-A (human) = Filamin-A (human) (UniProt P21333)
[12] = target: 14-3-3 protein gamma (human) (UniProt P61981)
[13] = target: Transitional endoplasmic reticulum ATPase (human) (UniProt P55072)
Vimentin (human) = Vimentin (human) (UniProt P08670)
Histone H4 (human) = Histone H4 (human) (UniProt P62805)
Thymosin alpha-1 (human) = Thymosin alpha-1 (human) (UniProt P06454)
[14] = target: Tropomyosin alpha-4 chain (human) (UniProt P67936)
Sequence of Tropomyosin alpha-4 chain (human) (P67936 2-248 limits assumed): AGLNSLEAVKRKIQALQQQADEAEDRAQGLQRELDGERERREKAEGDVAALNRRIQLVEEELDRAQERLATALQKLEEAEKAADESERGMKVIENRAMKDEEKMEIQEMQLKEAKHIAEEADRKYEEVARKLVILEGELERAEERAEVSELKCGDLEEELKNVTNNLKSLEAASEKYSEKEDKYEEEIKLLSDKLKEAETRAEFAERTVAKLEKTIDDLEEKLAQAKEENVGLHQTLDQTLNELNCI

Sequence of Hornerin (human) (Q86YZ3 whole entry): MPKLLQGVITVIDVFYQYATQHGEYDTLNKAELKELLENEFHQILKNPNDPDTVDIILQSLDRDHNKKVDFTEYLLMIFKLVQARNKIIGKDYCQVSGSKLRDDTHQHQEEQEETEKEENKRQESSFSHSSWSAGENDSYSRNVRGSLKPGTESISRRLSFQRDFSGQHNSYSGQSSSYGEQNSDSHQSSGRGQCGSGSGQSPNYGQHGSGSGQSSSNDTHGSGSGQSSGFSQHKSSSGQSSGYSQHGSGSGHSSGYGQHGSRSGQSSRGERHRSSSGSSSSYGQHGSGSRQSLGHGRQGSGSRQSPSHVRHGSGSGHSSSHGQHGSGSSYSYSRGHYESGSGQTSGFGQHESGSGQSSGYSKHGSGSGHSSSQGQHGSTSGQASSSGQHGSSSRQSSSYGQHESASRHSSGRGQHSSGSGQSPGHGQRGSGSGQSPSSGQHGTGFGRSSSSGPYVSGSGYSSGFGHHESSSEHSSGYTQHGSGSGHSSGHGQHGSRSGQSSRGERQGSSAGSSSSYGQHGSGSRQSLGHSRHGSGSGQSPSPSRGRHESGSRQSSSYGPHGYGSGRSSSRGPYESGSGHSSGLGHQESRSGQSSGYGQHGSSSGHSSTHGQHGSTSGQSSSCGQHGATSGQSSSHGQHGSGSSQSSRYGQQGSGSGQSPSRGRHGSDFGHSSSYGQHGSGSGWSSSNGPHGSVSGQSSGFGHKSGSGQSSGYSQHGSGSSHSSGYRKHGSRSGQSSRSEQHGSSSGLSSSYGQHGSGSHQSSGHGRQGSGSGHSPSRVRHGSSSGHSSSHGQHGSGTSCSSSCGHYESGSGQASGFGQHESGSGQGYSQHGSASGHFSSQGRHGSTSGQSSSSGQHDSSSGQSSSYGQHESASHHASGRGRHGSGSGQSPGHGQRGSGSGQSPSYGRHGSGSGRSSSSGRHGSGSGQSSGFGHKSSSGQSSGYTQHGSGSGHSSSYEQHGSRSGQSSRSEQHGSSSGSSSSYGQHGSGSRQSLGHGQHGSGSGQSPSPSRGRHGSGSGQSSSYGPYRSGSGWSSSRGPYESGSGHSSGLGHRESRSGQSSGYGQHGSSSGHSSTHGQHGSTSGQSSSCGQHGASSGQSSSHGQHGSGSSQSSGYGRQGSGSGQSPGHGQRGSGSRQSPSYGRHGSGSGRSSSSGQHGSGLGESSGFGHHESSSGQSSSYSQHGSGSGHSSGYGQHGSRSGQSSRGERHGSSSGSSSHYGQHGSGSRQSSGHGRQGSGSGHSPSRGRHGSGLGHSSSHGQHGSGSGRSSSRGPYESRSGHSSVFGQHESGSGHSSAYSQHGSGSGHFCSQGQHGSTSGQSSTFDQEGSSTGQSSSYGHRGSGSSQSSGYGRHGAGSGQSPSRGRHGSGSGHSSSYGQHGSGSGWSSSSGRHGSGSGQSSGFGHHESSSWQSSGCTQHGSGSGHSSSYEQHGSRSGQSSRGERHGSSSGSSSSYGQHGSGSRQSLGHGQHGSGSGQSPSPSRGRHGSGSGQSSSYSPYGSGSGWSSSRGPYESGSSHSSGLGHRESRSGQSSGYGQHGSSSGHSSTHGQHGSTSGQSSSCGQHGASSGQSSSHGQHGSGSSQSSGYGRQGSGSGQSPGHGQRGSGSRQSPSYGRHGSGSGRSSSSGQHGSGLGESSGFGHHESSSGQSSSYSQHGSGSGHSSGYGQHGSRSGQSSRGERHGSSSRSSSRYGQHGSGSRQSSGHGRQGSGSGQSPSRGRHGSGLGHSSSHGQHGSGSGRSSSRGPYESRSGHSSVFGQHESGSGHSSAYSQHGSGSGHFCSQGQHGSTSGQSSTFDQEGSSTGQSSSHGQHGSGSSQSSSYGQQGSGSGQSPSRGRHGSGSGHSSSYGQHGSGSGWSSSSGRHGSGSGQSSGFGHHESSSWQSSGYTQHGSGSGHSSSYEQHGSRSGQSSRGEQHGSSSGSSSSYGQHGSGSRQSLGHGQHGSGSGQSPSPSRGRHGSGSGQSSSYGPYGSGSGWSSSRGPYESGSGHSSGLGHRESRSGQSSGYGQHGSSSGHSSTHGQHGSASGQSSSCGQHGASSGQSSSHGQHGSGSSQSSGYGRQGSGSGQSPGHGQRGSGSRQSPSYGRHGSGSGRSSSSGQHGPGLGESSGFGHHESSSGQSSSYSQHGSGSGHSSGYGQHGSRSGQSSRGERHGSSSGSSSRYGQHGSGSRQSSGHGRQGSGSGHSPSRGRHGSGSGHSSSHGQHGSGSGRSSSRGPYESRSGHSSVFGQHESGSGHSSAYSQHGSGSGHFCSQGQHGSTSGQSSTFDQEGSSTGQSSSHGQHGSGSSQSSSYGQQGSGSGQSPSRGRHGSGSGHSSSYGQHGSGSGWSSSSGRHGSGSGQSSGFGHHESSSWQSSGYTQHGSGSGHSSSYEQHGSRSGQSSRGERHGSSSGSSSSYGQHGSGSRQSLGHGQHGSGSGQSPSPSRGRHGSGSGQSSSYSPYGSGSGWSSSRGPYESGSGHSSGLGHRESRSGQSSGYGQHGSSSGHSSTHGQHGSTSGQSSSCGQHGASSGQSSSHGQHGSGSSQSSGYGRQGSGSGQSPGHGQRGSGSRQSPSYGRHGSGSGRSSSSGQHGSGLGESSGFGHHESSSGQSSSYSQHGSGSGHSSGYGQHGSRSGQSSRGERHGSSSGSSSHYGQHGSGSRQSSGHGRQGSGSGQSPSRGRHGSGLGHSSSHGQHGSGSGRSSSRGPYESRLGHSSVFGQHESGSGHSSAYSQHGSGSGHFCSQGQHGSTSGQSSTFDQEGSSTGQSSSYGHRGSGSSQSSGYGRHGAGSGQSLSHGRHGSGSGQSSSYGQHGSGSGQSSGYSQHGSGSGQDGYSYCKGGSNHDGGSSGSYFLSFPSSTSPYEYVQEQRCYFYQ
Sequence of Plastin-2 (human) (P13796 2-627 limits assumed): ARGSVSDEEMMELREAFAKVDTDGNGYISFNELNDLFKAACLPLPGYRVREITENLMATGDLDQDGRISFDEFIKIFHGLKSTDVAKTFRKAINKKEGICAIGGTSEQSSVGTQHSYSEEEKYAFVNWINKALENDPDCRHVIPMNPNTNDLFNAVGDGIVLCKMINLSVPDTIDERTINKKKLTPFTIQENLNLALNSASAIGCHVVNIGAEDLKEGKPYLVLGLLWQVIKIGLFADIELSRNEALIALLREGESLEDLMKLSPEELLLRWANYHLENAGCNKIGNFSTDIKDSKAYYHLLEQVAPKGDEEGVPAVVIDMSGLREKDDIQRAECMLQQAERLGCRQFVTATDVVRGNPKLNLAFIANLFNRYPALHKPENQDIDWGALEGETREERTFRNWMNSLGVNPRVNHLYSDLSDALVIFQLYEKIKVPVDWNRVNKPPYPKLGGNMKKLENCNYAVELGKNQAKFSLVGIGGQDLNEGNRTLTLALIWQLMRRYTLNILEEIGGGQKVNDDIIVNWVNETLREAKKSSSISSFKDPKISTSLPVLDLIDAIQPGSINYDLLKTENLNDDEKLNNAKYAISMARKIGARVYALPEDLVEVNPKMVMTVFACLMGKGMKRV
Sequence of Centrosomal protein of 120 kDa (Fragment) (human) (Q8N960 whole entry, the tested form may be a part): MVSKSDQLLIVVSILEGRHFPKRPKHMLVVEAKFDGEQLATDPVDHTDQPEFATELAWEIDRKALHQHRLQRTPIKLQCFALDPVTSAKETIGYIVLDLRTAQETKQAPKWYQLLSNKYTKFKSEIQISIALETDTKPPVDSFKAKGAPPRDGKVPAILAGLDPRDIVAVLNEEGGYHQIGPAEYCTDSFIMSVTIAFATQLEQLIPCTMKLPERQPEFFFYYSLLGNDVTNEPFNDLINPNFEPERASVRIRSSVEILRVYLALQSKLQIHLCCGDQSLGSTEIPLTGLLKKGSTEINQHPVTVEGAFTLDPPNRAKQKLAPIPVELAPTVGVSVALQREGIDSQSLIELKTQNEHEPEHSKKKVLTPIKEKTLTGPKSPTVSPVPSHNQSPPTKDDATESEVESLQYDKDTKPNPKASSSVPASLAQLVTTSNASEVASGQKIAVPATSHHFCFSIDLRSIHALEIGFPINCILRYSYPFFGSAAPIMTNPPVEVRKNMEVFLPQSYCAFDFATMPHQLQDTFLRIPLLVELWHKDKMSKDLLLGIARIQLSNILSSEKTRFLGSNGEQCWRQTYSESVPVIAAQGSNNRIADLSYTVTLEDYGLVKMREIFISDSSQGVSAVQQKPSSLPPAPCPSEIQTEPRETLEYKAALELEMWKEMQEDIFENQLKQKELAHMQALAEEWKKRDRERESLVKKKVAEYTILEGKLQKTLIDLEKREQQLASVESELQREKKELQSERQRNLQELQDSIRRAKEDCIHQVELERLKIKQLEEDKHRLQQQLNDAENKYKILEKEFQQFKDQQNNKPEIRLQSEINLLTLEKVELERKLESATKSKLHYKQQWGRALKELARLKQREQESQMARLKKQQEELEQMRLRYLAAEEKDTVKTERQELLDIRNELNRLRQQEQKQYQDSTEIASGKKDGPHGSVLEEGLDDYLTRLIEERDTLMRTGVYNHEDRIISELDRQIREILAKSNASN
Sequence of Isoform Short of 14-3-3 protein beta/alpha (human) (P31946 3-246 limits assumed): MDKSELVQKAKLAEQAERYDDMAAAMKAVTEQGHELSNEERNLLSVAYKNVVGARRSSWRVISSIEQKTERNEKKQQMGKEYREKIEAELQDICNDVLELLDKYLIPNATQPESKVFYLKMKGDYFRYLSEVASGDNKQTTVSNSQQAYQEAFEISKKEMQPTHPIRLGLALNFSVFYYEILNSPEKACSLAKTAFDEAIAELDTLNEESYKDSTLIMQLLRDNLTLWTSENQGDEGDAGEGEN
Sequence of Thymosin alpha-1 (human) (P06454 other isoform, or with tags, fused parts or gaps limits assumed): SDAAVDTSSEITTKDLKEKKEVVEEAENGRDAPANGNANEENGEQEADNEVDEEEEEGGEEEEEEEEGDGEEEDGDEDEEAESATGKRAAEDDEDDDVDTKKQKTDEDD

PIF15 affinity resin (Cys-C6 spacer-PIF15 conjugated to agarose) (peptide)
9: Inject 1 (Vimentin (human)) | Inject 3 (Vimentin (human))
6: Inject 1 (Calmodulin (human)) | Ave (Calreticulin (human)) | Inject 3 (Calreticulin (human))
1: Ave [2] | Ave (Plastin-2 (human)) | Inject 1 (Plastin-2 (human)) | Inject 2 (Plastin-2 (human)) | Inject 2 (Gelsolin (human)) | Inject 3 (Gelsolin (human)) | Ave (Hornerin (human)) | Inject 1 (Hornerin (human)) | Inject 2 [5] | Inject 3 [6] | Ave [7] | Inject 3 [7] | Ave [8] | Inject 1 [8] | Inject 3 [8] | Ave [9] | Inject 2 [9] | Inject 3 (Coronin-1A (human))
5: Inject 1 [1] | Inject 3 [10] | Ave (Filamin-A (human)) | Inject 1 (Filamin-A (human)) | Ave (Thymosin alpha-1 (human)) | Inject 1 (Thymosin alpha-1 (human)) | Inject 2 (Thymosin alpha-1 (human))
11: Inject 2 (Vimentin (human))
0: Inject 2 [2] | Inject 3 [2] | Inject 2 (Hornerin (human)) | Inject 2 [7] | Inject 1 [9] | Inject 2 (Histone H4 (human))
8: Ave [14] | Inject 1 [14] | Inject 3 [14]
4: Ave [1] | Inject 2 [1] | Inject 3 [3] | Ave [4] | Inject 1 [4] | Inject 3 [4] | Inject 1 [5] | Inject 1 [6] | Ave [10] | Inject 1 [10] | Ave (Calmodulin (human)) | Inject 2 (Calmodulin (human)) | Inject 2 (Calreticulin (human)) | Inject 3 (Thymosin alpha-1 (human))
3: Inject 3 [1] | Ave [3] | Inject 1 [3] | Inject 2 [3] | Inject 2 [4] | Inject 1 (Gelsolin (human)) | Inject 3 (Calmodulin (human)) | Inject 2 (Filamin-A (human)) | Ave [12] | Inject 1 [12] | Inject 2 [12] | Inject 3 [12] | Ave [13] | Inject 1 [13] | Inject 3 [13] | Inject 1 (Histone H4 (human))
10: Ave (Vimentin (human))
7: Inject 1 (Calreticulin (human)) | Inject 3 (Filamin-A (human)) | Inject 2 [14]
2: Inject 1 [2] | Inject 3 (Plastin-2 (human)) | Ave (Gelsolin (human)) | Inject 3 (Hornerin (human)) | Ave [5] | Inject 3 [5] | Ave [6] | Inject 2 [6] | Inject 1 [7] | Inject 2 [8] | Inject 3 [9] | Inject 2 [10] | Ave [11] | Inject 1 [11] | Inject 2 [11] | Inject 3 [11] | Ave (Coronin-1A (human)) | Inject 1 (Coronin-1A (human)) | Inject 2 (Coronin-1A (human)) | Inject 2 [13] | Ave (Histone H4 (human)) | Inject 3 (Histone H4 (human))
